These results are taken from patent publication US9988424 (DUKE UNIVERSITY, dated 2018).

The target of one experiment is AE.con gp140CF. The experiment is described as follows: ELISA, OD405 at 10 ug/ml. (In an ELISA, binding on a coated surface is turned into a signal by an enzyme label.)
In another experiment the target is T1, B.62357 gp140C.
T1 construct: also called B.62357 140C
The experiment is described as follows: ELISA, OD405 at 10 ug/ml.

The next experiment addresses B.con gp140CF. As to the kind of experiment: ELISA, OD405 at 10 ug/ml.
The target of the next experiment is T2, C.1086 gp140.
T2 construct: also called C.1086gp140C
The experiment is described as follows: ELISA, OD405 at 10 ug/ml.

The next experiment deals with D.9009SA V1/V2 tags. As to the kind of experiment: ELISA, OD405 at 10 ug/ml.
Another experiment deals with T3, AE.97CNG2XF gp140CF (HIV-1).
T3 construct: also called E.97CNGX2F gp140CF
As to the kind of experiment: ELISA, OD405 at 10 ug/ml.

Experiment [1] has as its target T4, SIV CPZ US-1 gp140CF (SIVcpz).
T4 construct: also called US-1 SIVCPZ gp140CF
T4 chain: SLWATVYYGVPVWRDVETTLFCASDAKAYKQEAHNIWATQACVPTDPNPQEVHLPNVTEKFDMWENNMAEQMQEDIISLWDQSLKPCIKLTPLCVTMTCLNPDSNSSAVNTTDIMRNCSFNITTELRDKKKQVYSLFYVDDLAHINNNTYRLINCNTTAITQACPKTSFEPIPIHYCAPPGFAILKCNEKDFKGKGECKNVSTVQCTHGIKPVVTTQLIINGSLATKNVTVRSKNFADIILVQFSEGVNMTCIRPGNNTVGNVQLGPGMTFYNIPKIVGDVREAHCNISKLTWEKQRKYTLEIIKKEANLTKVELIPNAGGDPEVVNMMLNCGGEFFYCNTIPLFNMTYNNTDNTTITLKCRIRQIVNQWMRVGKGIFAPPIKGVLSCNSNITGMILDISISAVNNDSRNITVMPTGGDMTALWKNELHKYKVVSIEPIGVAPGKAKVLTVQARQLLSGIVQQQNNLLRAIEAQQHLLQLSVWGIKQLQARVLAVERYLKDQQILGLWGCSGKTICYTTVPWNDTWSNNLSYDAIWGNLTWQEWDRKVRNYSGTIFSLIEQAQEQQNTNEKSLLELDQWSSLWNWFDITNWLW
As to the kind of experiment: ELISA, OD405 at 10 ug/ml.

For a further experiment, the target named is T5, MLV gp70 carrier protein.
T5 construct: also called MuLV gp70
T5 carrier protein: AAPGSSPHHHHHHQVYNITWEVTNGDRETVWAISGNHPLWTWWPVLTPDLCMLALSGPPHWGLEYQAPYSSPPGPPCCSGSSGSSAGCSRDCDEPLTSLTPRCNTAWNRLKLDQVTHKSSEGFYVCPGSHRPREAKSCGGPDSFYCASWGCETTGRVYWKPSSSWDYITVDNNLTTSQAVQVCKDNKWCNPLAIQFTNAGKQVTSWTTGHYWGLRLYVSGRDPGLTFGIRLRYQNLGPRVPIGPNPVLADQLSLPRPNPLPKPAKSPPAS
As to the kind of experiment: ELISA OD405nm, bar chart, antibody concentration not given.

In experiment [2] the target is D.9009SA V1V2 Tags. The experiment is described as above.
A further experiment deals with T6, B.con env03 140CF.
T6 construct: also called B.con gp140CF
The description is as above.

For a further experiment, the target named is B.CaseA V1/V2 Tags. The description is as above.
The target in a further experiment is B.63521_V1V2 Tags. The description is as above.
For a further experiment, the target named is T7, AE.con env03 40CF.
T7 construct: also called AE.con gp140CF; AE.con.env03 gp140CF
The description is as above.

The next experiment deals with T8, A.9004SS V1V2 Tags.
T8 V1V2 tags construct: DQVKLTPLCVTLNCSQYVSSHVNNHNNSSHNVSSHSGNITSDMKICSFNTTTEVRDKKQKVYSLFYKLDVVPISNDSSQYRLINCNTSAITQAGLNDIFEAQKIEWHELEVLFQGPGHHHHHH
Described as above.

In a further experiment the target is T9, B.62357 140C.
T9 construct: also called B.62357 gp140C
Described as above.

Another experiment has as its target B.040 gp140C. Described as above.
The target in another experiment is T10, gp70 B.CaseA2 V1/V2 (HIV-1 V1V2 on murine leukemia virus gp70).
T10 construct: also called B.gp70CaseA2 V1/V2; gp70 B.CaseAV1V2
T10 chain: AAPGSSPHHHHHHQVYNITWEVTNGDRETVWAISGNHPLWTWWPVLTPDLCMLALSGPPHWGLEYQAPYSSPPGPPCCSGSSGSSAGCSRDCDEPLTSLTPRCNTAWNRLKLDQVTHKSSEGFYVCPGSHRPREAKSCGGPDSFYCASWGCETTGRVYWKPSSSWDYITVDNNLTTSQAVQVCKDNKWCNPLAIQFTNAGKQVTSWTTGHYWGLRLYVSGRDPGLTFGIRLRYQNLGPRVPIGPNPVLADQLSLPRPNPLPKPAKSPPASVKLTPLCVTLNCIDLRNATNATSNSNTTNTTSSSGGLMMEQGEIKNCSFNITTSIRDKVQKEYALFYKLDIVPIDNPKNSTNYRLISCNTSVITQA
The description is as above.

The target in the next experiment is B.9021 gp140C (HIV-1). The experiment is described as above.
The target in experiment [3] is T4, SIV CPZ US-1 gp140CF. The description is as above.
The target of experiment [4] is T11, D.9009SA V1V2 Tags.
T11 Env construct: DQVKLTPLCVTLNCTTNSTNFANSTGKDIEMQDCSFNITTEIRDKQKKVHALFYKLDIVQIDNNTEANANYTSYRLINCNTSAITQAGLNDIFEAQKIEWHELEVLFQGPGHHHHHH
As to the kind of experiment: ELISA, OD405.

B1: PG16 reverted unmutated ancestor antibody (antibody, V domains shown)
VH: QVQLVESGGGVVQPGRSLRLSCAASGFTFSSYGMHWVRQAPGKGLEWVAVISYDGSNKYYADSVKGRFTISRDNSKNTLYLQMNSLRAEDTAVYYCAREAGGPIWHDDVKYYDFNDGYYYYYYMDVWGKGTTVTVSS
VL: QSALTQPASVSGSPGQSITISCTGTSSDVGSYNLVSWYQQHPGKAPKLMIYEVSKRPSGVSNRFSGSKSGNTASLTISGLQAEDEADYYCCSLTDRSHRIFGGGTKLTVL
notes: also called PG16 RUA; PG16_RUA
Regarding B1, the binding result with AE.con gp140CF, in the experiment with B.62357 gp140C, with B.con gp140CF, with C.1086 gp140, with D.9009SA V1/V2 tags and in the experiment with AE.97CNG2XF gp140CF was “no binding (tested: 10 ug/ml)” each time. In the experiment with SIV CPZ US-1 gp140CF [1], the binding result is on record as “no binding (tested: 10 ug/ml)”.

B2: CH59 reverted unmutated ancestor antibody (antibody, V domains shown)
VH: EVQLVESGGGLVQPGRSLRLSCAASGFTFDDYAMHWVRQAPGKGLEWVSGISWNSGSIGYADSVKGRFTISRDNAKNSLYLQMNSLRAEDTALYYCAKDSPRGELPFDYWGQGTLVTVSS
VL: SYELTQPPSVSVSPGQTARITCSGDALPKKYAYWYQQKSGQAPVLVIYEDSKRPSGIPERFSGSSSGTMATLTISGAQVEDEADYYCYSTDSSGNHRVFGGGTKLTVL
notes: also called CH59 RUA; CH59_RUA
On to B2, for which the binding result with MLV gp70 carrier protein, with D.9009SA V1V2 Tags [2], with B.con env03 140CF, with B.CaseA V1/V2 Tags, with B.63521_V1V2 Tags and with AE.con env03 40CF was “no binding (tested: not given)” in each case. The binding result with A.9004SS V1V2 Tags, with B.62357 140C, with B.040 gp140C, in the experiment with gp70 B.CaseA2 V1/V2, in the experiment with B.9021 gp140C and with SIV CPZ US-1 gp140CF [3] was “no binding (tested: not given)” throughout.

B3: 697D (antibody, V domains shown)
VH: QVQLVQSGAEVKKPGSSVKVSCKASGGNFNTYTISWVRQAPGQGLEWMGRIIPIFGIVNPAQKFPGRVTINVDKSTNTAYMELSSLRSEDTAVYYCATSGVGLHFGYFDYWGQGTQVTVSS
VL: QSVLTQPPSVSGAPGQRVTISCTGSSSNIGAHYDVHWYQQLPGTAPKLLIYGNSNRPSGVPDRFSGSKSGTSASLAITGLQAEDEADYYCQSYDSSLSGYVFGTGTKVTVL
notes: also called mAb 697D; V2 conformational mAb 697D
Consider B3, for which, in the experiment with D.9009SA V1V2 Tags [4], the binding result was “no binding (tested: 10 ug/ml)”.
